In patent US8703698B2, “Compositions and methods for treating atherosclerosis” (The University of Chicago, priority 2003, dated 2014):

Assays:
THP-1 cells = test: Cholesterol efflux from cholesterol-laden human THP-1 cells; type: cell-based; conditions: liposomal formulations; cholesterol-laden THP-1 cells differentiated with phorbol myristate acetate
Procedure: These monocytes were differentiated into macrophages with phorbol myristate acetate (100 nM). In these experiments, cholesterol-laden human THP-1 cells were exposed to liposomal formulations comprising a peptide corresponding to amino acids 1-20 of murine SAA2.1 (SEQ ID NO:1), a peptide corresponding to amino acids 74-103 of murine SAA2.1 (SEQ ID NO:4), a peptide corresponding to amino acids 1-20 of murine SAA1.1 plus an arginine at the N-terminus (SEQ ID NO:7), or a peptide corresponding to amino acids 1-20 of murine SAA2.1 (SEQ ID NO:1) and a peptide corresponding to amino acids 74-103 (SEQ ID NO:4) of murine SAA2.1. Results from these experiments are depicted in FIG. 4. […] Studies were carried out to determine whether murine SAA2.1 increases cholesterol export from a human derived monocytic cell line, THP-1 (obtained from American Type Culture Collection, Manassas, Va.; ATCC#TIB-202). Human monocytes were cultured in T-75 flasks with 30 ml RPMI 1640 medium containing 2 mM L-glutamine, 4.5 g/L glucose, 10 mM HEPES, 1.0 mM […] and supplemented with 0.05 mM 2-mercaptoethanol and 10% fetal bovine serum. Subsequently, five million cells were placed in each well of a 6-well tissue culture plate. The monocytes were differentiated into macrophages by treatment with phorbol myristate acetate (100 nM). THP-1 macrophages were enriched with cholesterol by incubating with red blood cells membrane fragments (175 μg as cholesterol) that had been previously labelled with 0.5 μCi/mL[^3H]-cholesterol at 37° C. for 6 hours in 0.2% bovine serum albumin, followed by an overnight equilibration period. Cells were washed four times with PBS/BSA prior to efflux studies. Cells were then incubated at 37° C. with 2 mL RPMI-BSA containing 5% LPDS and 50 μg/mL of either native HDL, SAA-HDL, liposomes containing 2 μmoles of apoA-I, SAA1.1 or 2.1, or liposomes containing 0.5 μmoles synthetic peptides corresponding to amino acid residues 1-20 (SEQ ID NO:1), 21-50 (SEQ ID NO:2), 51-80 (SEQ ID NO:3) or 74-103 (SEQ ID NO:4) of murine SAA2.1. The efflux media were collected at 0, 1, 2, 4, 8, 16 and 24 hours, centrifuged to remove cell debris, and then used to measure the exported counts. […] A portion of the cells was lysed in 0.1N NaOH to estimate both the remaining radioactivity and the cellular protein content. Cellular lipids were extracted from the remaining portion of the cells and analyzed by thin-layer chromatography as described by Mendez et al. (J. Clin. Invest. 1994 94:1698-1705) and Oram et al. (Arterioscler. Thromb. 1991 11:403-414). The radioactivity in appropriate spots was measured to determine total cellular cholesterol counts. Efflux of radioactive label to the medium was calculated as the percentage of total counts (cell+medium counts) in each well.

[1] = tested on: cholesterol ester hydrolase; test: Rate of hydrolysis of cholesteryl ester in cholesterol-laden J774 cells (cholesterol ester hydrolase activity); type: cell-based, murine
Procedure: Identification of the domain of SAA2.1 that is responsible for enhancing cholesterol ester hydrolase activity was performed in J774 cells preloaded with radio-labeled cholesteryl esters. These experiments were performed in the presence of Sandoz 58-035, an inhibitor of acyl CoA:cholesterol acyl transferase activity, to prevent re-esterification of liberated cholesterol and [^14C]oleate. Incubations proceeded for times ranging from 0 to 24 hours, following which the remaining quantities of [^14C]-labeled cholesteryl oleate in cells were measured to determine the rate of hydrolysis of cholesteryl ester. […] However, an equivalent amount of liposomes containing the synthetic peptide corresponding to amino acid residues 74-103 of murine SAA2.1 caused a 3-fold increase in cholesterol ester hydrolase activity in these cholesterol-laden murine cells. Newly confluent J774 cells were labeled with [^14C]-oleate during cholesterol loading with red blood cell membranes as described above. Cells were then incubated for up to 24 hours with 2 mL of DMEM containing 5% LPDS and 50 μg/mL of either native HDL, SAA-HDL, liposomes containing 2 μmoles of apoA-1, SAA1.1 or 2.1, or liposomes containing 0.5:mol synthetic peptides corresponding to amino acid residues 1-20 (SEQ ID NO:1), 21-50 (SEQ ID NO:2), 51-80 (SEQ ID NO:3) and 74-103 (SEQ ID NO:4) of murine SAA2.1. To determine the rate of cholesteryl ester hydrolysis, 2 μg/mL of the acyl CoA:cholesterol acyl transferase inhibitor Sandoz 58-035 (propanimide, 3-(decyldimethylsilyl)-N-[2-(4-methylphenyl)-1-phenylethyl]-(9Cl) was added during incubation with lipoproteins or liposomes to prevent […] and free cholesterol. To examine whether or not the rate of cholesteryl ester hydrolysis involved the lysosomal cholesteryl ester hydrolase, the cells were cultured in the presence of 50 μg/mL of either native HDL and chloroquine or SAA-HDL and chloroquine (100:M). Chloroquine is an agent that neutralizes the lysosomal proton gradient. At various time points, cellular lipids were extracted and analyzed for cholesteryl ester radioactivity as described above.

[2] = target: T1, acyl CoA:cholesterol acyl transferase (Mus musculus, UniProt Q61263); conditions: intact murine macrophages and post-nuclear homogenates; Ely et al. 2001; cited from earlier work
T1 construct: The relative activity of acyl CoA:cholesterol acyl transferase was determined in cholesterol-laden cells; host or cells: J774 mouse macrophages, cholesterol-loaded
T1 sequence (Q61263 1-540): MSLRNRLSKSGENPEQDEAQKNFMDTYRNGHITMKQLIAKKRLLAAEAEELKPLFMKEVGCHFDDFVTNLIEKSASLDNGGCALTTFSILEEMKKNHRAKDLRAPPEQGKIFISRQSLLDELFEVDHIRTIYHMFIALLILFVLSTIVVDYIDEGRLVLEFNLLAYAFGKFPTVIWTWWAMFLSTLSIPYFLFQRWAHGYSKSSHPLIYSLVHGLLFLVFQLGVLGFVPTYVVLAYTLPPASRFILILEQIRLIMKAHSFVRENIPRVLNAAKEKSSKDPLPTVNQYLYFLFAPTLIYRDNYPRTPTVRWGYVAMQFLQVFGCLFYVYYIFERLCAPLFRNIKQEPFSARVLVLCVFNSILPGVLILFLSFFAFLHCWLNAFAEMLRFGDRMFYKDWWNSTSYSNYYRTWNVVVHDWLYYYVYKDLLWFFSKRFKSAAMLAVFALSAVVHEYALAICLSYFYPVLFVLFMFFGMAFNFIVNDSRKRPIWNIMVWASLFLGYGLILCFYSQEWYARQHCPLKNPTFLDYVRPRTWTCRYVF

J774 macrophages = test: Cholesterol efflux from cholesterol-laden J774 macrophages to apolipoprotein liposomes with 8-bromo-cAMP or methyl-β-cyclodextrin; type: cell-based, mouse; conditions: 8-bromo-cAMP 0.3 mM, 12 hours; Sandoz 58-035 present
Text: The export process of cholesterol is coupled to the ATP binding cassette transporter (ABCA1) pathway. Lipid efflux to apolipoproteins has been shown previously to be stimulated by treatment of murine macrophages with cAMP analogues (Lin et al. 2002 Biochem Biophys Res. Commun. 290:663-669; Oram et al. 2000 J. Biol. Chem. 275:34508-34511). Also, the expression of ABCA1 is induced by cAMP treatment (Lin et al. 2002 Biochem Biophys Res. Commun. 290:663-669; Oram et al. 2000 J. Biol. Chem. 275:34508-34511). The inventors herein examined the effect of 8-bromo-cAMP (0.3 mM) on cholesterol efflux by liposomes containing various apolipoproteins when incubated with cholesterol-laden J774 macrophages. Such cells were pre-labeled with [^3H]-cholesterol in the presence of Sandoz 58-035, an ACAT inhibitor, to ensure that all of the radiolabeled cholesterol released from the cells was derived from the un-esterified cholesterol pool, and the cells were treated for 12 hours with 8-bromo-cAMP. This was followed by incubation with various acceptors. The fractional release of cellular labeled cholesterol was determined as a function of time.
To investigate whether an apolipoprotein free cholesterol acceptor such as cyclodextrin has the ability to catalyze the removal of cholesterol from macrophages, cholesterol-loaded and labeled J774 cells were incubated with liposomes and methyl-β-cyclodextrin (0.1 mM) (CD).
To examine whether cholesterol export from J774 cells to medium containing liposomes containing 2 μM murine apoA-1, SAA1.1 or SAA2.1 is a cAMP-dependent process, the radio-labeled cholesterol-laden cells were incubated overnight with 8-Br-cAMP (0.3 mM), prior to the addition of liposomes containing 2 μM murine apoA-1, SAA1.1 or SAA2.1 to the culture medium. Cholesterol efflux to the medium was then determined at the indicated time points as described above. Efflux of radioactive label to the medium was calculated as a percentage of total counts in each well.

[3] = target: T1, acyl CoA:cholesterol acyl transferase; test: ACAT activity in macrophage post-nuclear homogenates; type: biochemical, murine; conditions: macrophage post-nuclear homogenates as enzyme source
Text: The in vitro effects of acute phase-HDL (AP-HDL;HDL-SAA) on acyl CoA:cholesterol acyl transferase and cholesterol ester hydrolase activities and on cellular cholesterol export were studied by the inventors using purified enzymes, cell homogenates, and whole cells. […] In contrast, murine SAA1.1 and apoA-1 had no effect. […] Using macrophages preloaded with radio-labeled cholesterol and injected intravenously into either inflamed or un-inflamed mice, it was shown that the inflamed mice, which have high SAA2.1 levels, effluxed cholesterol more rapidly and to a greater extent (6-fold greater) than their un-inflamed counterparts.

[4] = target: T1, acyl CoA:cholesterol acyl transferase; test: Incorporation of [14C]oleate into cholesteryl ester in cholesterol-laden macrophages (ACAT activity); type: cell-based, murine; conditions: lipoproteins or protein liposomes; tissue culture
Procedure: The incorporation of [^14C]oleate into cholesteryl ester was used as a measure of acyl CoA:cholesterol acyl transferase activity to identify compositions inhibiting the enzyme activity. The relative acyl CoA:cholesterol acyl transferase activity was determined in cholesterol-laden murine cells that had been cultured in medium in the absence of liposomes or in the presence of protein-free liposomes or liposomes containing 0.5 μM synthetic peptides corresponding to amino acids 1-20, 21-50, 51-80 and 74-103 of murine SAA2.1.
To load the cells with cholesterol, nearly confluent mono-layers were washed 3 times with phosphate buffered saline containing 2 mg/mL fatty acid-free bovine serum albumin (PBS-BSA) and incubated for 5 hours in DMEM supplemented with 5% lipoprotein-depleted serum (LPDS) (d>1.25 g/mL) and 175 μg of red blood cell membrane cholesterol. For the purpose of pool equilibration of added cholesterol, cell cultures were rinsed twice with PBS-BSA and incubated overnight in DMEM containing 5% LPDS. The relative activity of acyl CoA:cholesterol acyl transferase was determined in cholesterol-laden cells that had been cultured in medium containing no liposomes, protein-free liposomes or liposomes containing 0.5:M synthetic peptides corresponding to amino acid residues 1-20 (SEQ ID NO:1), 21-50 (SEQ ID NO:2), 51-80 (SEQ ID NO:3) or 74-103 (SEQ ID NO:4) of murine SAA2.1, respectively. Following 3 hours incubation with the above media, [^14C]-oleate was added and the cells were incubated for another 3 hour period (Mendez et al. J. Clin. Invest. 1994 94:1698-1705; Oram et al. Arterioscler. Thromb. 1991 11:403-414). Cells were chilled on ice and washed twice with PBS-BSA and twice with PBS. After addition of [^3H]-cholesteryl oleate (6000 dpm/well) as an internal standard, the lipids were extracted from the labeled cells and analyzed by thin-layer chromatography as described by Mendez et al. (J. Clin. Invest. 1994 94:1698-1705) and Oram et al. (Arterioscler. Thromb. 1991 11:403-414). The radioactivity in appropriate spots was measured to determine the incorporation of radioactivity into cholesteryl esters as a measure of acyl CoA:cholesterol acyl transferase activity.

GFFSFIGEAFQGAGDMWRAY [SEQ ID NO:5, synthetic peptide, residues 1-20 of murine SAA1.1]
cholesterol efflux, time course (FIG. 4) (THP-1 cells): inactive

GFFSFVHEAFQGAGDM [murine SAA2.11-16, 16-mer released by cyanogen bromide cleavage of murine SAA2.1, residues 1-16, reference compound]
effect on cholesterol ester hydrolase activity ([1]; fragment released by cyanogen bromide cleavage): produced no effect | macrophage ACAT activity [2]: profound effect inhibiting ACAT activity in a dose-dependent manner

RGFFSFIGEAFQGAGDMWRAY [SEQ ID NO:7, residues 1-20 of murine SAA1.1 plus an arginine at the N-terminus]
cholesterol efflux, time course (FIG. 4) (THP-1 cells): effectively increased cholesterol efflux

B1: apoA-1: apolipoprotein isolated from acute phase murine plasma, reconstituted in liposomes (protein, UniProt Q00623 25-264, looked up)
Apolipoprotein A-I: DEPQSQWDKVKDFANVYVDAVKDSGRDYVSQFESSSLGQQLNLNLLENWDTLGSTVSQLQERLGPLTRDFWDNLEKETDWVRQEMNKDLEEVKQKVQPYLDEFQKKWKEDVELYRQKVAPLGAELQESARQKLQELQGRLSPVAEEFRDRMRTHVDSLRTQLAPHSEQMRESLAQRLAELKSNPTLNEYHTRAKTHLKTLGEKARPALEDLRHSLMPMLETLKTQVQSVIDKASETLTAQ
modifications: reconstituted in liposomes
cholesterol ester hydrolase activity in intact cholesterol-laden macrophages ([1]; lipoproteins or protein liposomes, tissue culture): no effect on enzyme activities | increase in the initial rate of cholesterol efflux to liposomes after cAMP pre-treatment versus untreated cells (J774 macrophages): 32.7% | acyl CoA:cholesterol acyl transferase activity [3]: had no effect | acyl CoA:cholesterol acyl transferase activity in intact cholesterol-laden macrophages [4]: no effect on enzyme activities
